Data taken from PMC10715038 (Microbiology Spectrum, 2023).

Key:
[1] = molecular target: T1, SARS-CoV-2 WHU01 Spike RBD, monomeric (SARS-CoV-2, UniProt P0DTC2); assay: SPR; conditions: both partners purified
T1 construct: not shown: Fc (human IgG1), C-terminal, cleaved

[2] = molecular target: T1, SARS-CoV-2 WHU01 Spike RBD, monomeric; assay: SPR; conditions: both partners purified; remark: listed apart in the source

B1: Pig ACE2-huFc (soluble pig ACE2 ectodomain, human IgG1 Fc fusion) (Fc fusion)
chain: QSTTEELAKTFLEKFNLEAEDLAYQSSLASWNYNTNITDENIQKMNDARAKWSAFYEEQSRIAKTYPLDEIQTLILKRQLQALQQSGTSGLSADKSKRLNTILNTMSTIYSSGKVLDPNNPQECLVLEPGLDEIMENSKDYSRRLWAWESWRAEVGKQLRPLYEEYVVLENEMARANNYEDYGDYWRGDYEVTGTGDYDYSRNQLMEDVERTFAEIKPLYEHLHAYVRAKLMDAYPSRISPTGCLPAHLLGDMWGRFWTNLYPLTVPFGEKPSIDVTEAMVNQSWDAIRIFEEAEKFFVSIGLPNMTQGFWNNSMLTEPGDGRKVVCHPTAWDLGKGDFRIKMCTKVTMDDFLTAHHEMGHIQYDMAYAIQPYLLRNGANEGFHEAVGEIMSLSAATPHYLKALGLLPPDFYEDSETEINFLLKQALTIVGTLPFTYMLEKWRWMVFKGEIPKEQWMQKWWEMKREIVGVVEPLPHDETYCDPACLFHVAEDYSFIRYYTRTIYQFQFHEALCRTAKHEGPLYKCDISNSTEAGQKLLQMLSLGKSEPWTLALENIVGVKTMDVKPLLSYFEPLLTWLKAQNGNSSVGWNTDWTPYADQSIKVRISLKSALGKEAYEWNDNEMYLFRSSIAYAMRNYFSSAKNETIPFGAEDVWVSDLKPRISFNFFVTSPANMSDIIPRSDVEKAISMSRSRINDAFRLDDNTLEFLGIQPTLGPPDEPPVT
Kd [1]: 1140 nM | koff [1]: 0.1 s⁻¹ | kon [1]: 87000 M⁻¹ s⁻¹ | Kd [2]: 1000 nM | koff [2]: 0.0395 s⁻¹ | kon [2]: 40000 M⁻¹ s⁻¹

B2: Rhinolophus sinicus bat ACE2-huFc (soluble bat ACE2 ectodomain, human IgG1 Fc fusion) (Fc fusion)
chain: QSTTEDEAKMFLDKFNTKAEDLSHQSSLASWDYNTNINDENVQKMDEAGAKWSAFYEEQSKLAKNYSLEQIQNVTVKLQLQILQQSGSPVLSEDKSKRLNSILNAMSTIYSTGKVCKPNKPQECLLLEPGLDNIMGTSKDYNERLWAWEGWRAEVGKQLRPLYEEYVVLKNEMARGYHYEDYGDYWRRDYETEESPGPGYSRDQLMKDVERIFTEIKPLYEHLHAYVRAKLMDTYPFHISPTGCLPAHLLGDMWGRFWTNLYPLTVPFGQKPNIDVTDEMLKQGWDADRIFKEAEKFFVSVGLPNMTEGFWNNSMLTEPGDGRKVVCHPTAWDLGKGDFRIKMCTKVTMEDFLTAHHEMGHIQYDMAYASQPYLLRNGANEGFHEAVGEVMSLSVATPKHLKTMGLLSPDFREDNETEINFLLKQALNIVGTLPFTYMLEKWRWMVFKGEIPKEEWMKKWWEMKRKIVGVVEPVPHDETYCDPASLFHVANDYSFIRYYTRTIFEFQFHEALCRIAQHDGPLHKCDISNSTDAGKKLHQMLSVGKSQAWTKTLEDIVDSRNMDVGPLLKYFEPLYTWLQEQNRKSYVGWNTDWSPYSDQSIKVRISLKSALGENAYEWNDNEMYLFRSSVAYAMREYFLKEKHQTILFGAENVWVSNLKPRISFNFHVTSPGNLSDIIPRPEVEGAIRMSRSRINDAFRLDDNSLEFLGIQPTLGPPYQPPVT
Kd [1]: 1140 nM | koff [1]: 0.0343 s⁻¹ | kon [1]: 30000 M⁻¹ s⁻¹ | Kd [2]: 1920 nM | koff [2]: 0.0377 s⁻¹ | kon [2]: 20000 M⁻¹ s⁻¹
